Assay results from patent US20260152557A1 (Adimab, published 2026).

Tests used:
[1] = target: T1, cynomolgus CD3 on HSC-F cells (cynomolgus, UniProt Q95LI5 22-198); test: flow cytometry, yeast-produced IgG 100 nM on HSC-F cells, pH 6.0
T1 construct: whole, on cells; also called Cyno HSC-F; cynomolgus HSC-F cells
Procedure: (§1) Anti-CD3 antibodies Antibody Nos. 1-13 were produced as aglycosylated IgGs comprising a IgG1 Fc region in yeast cells. Binding to human or cynomolgus CD3-expressing cells (human CD3+ Jurkat cells or cynomolgus HSC-F cells, respectively) at pH 7.4 and pH 6.0 were measured by fluorescence-activated single cell sorting (FACS). Normalized cell binding (NCB) values were calculated based on median fluorescence intensity (MFI) values, CD3 negative Jurkat cells were used as a negative control.
(§2) Cell binding assay, CD3+ and CD3− human Jurkat cells (ATCC) and cynomolgus HSC-F cells (NIH) were thawed and washed with cold PBSF buffer, pH 7.4 (PBS+0.1% BSA, pH 7.4). About 200,000 cells were aliquoted per well of a 96-well plate (FACS Assay Plate VWR BD 353263) and pelleted by centrifugation (5 minutes at 500×g). The cells were washed with either PBSF pH 7.4 or PBSF pH 6.0 (PBS+0.1% BSA, pH 6.0), and then resuspended in 100 μl in either PBSF pH 7.4 or PBSF pH 6.0 with IgG antibody (100 nM) produced in yeast as described above. The mixture (cells+antibody) was incubated for 20 minutes on ice, then washed twice with either PBSF pH 7.4 or PBSF pH 6.0. Cells were resuspended in 50 μl of propidium iodide (Roche; 1:500 dilution) and anti-human IgG-RPE (Southern Biotech; 1:100 dilution) prepared in either PBSF pH 7.4 or PBSF pH 6.0, then incubated for 20 minutes on ice in the dark before cells were washed twice with either PBSF pH 7.4 or PBSF pH 6.0. Binding was analyzed on FACS Canto 11.

[2] = target: T1, cynomolgus CD3 on HSC-F cells; test: flow cytometry, yeast-produced IgG 100 nM on HSC-F cells, pH 7.4
Procedure: as §1, §2

[3] = target: T2, human CD3 on CD3+ Jurkat cells (human, UniProt P07766 23-207); test: flow cytometry, yeast-produced IgG 100 nM on CD3+ Jurkat cells, pH 6.0
T2 construct: whole, on cells; The whole CD3 complex stands on the cells; also called Human CD3 Jurkat; human CD3+ Jurkat cells
Procedure: as §1, §2

[4] = target: T2, human CD3 on CD3+ Jurkat cells; test: flow cytometry, yeast-produced IgG 100 nM on CD3+ Jurkat cells, pH 7.4
Procedure: as §1, §2

[5] = target: T3, human CD3εδ-Fc heterodimer (Hu CD3ε Fc / CD3δ Fc-HIS) (human, UniProt P04234 22-100); test: BLI (Octet), yeast-produced IgG on AHC sensor, CD3εδ-Fc 100 nM in solution, pH 6.0
T3 construct: range 22-100; Produced in HEK 293 cells with a heterologous signal peptide; heterodimer purified by Ni Sepharose and Mono Q; also called Hu CD3εδ Fc heterodimer; CD3εδ Fc-HIS heterodimer; not shown: Fc-HIS part of CD3δ Fc-HIS
Procedure: (§3) Anti-CD3 antibodies Antibody Nos. 1-13 were produced as human IgG1 antibodies in yeast or CHO cells. IgGs produced in yeast were aglycosylated, CHO) produced IgGs had standard CH2 glycosylation. Binding affinity to human or cynomolgus CD3εδ-Fc at pH 7.4 and pH 6.0 was measured via biolayer interferometry (BLI) using the ForteBio OCTET® HTX system and analyzed using the ForteBio software.
(§4) Kinetics were analyzed using the 1:1 binding model.

[6] = target: T4, cynomolgus CD3εδ-Fc heterodimer (Cy CD3ε Fc / CD3δ Fc-HIS) (cynomolgus, UniProt Q95LI8 22-100); test: as above
T4 construct: range 22-100; Produced in HEK 293 cells; also called Cy CD3εδ Fc heterodimer; not shown: Fc-HIS part of CD3δ Fc-HIS
Procedure: as §3, §4

[7] = target: T3, human CD3εδ-Fc heterodimer (Hu CD3ε Fc …); test: BLI (Octet), yeast-produced IgG on AHC sensor, CD3εδ-Fc 100 nM in solution, pH 7.4
Procedure: as §3, §4

[8] = target: T4, cynomolgus CD3εδ-Fc heterodimer (Cy …); test: as above
Procedure: as §3, §4

[9] = target: T3, human CD3εδ-Fc heterodimer (Hu CD3ε Fc …); test: SPR (Biacore 8K), yeast-produced Fab, monovalent, pH 6.0
Procedure: (§5) Anti-CD3 antibodies (Antibody Nos. 1-13) were produced as human IgG1 antibodies in yeast or Chinese hamster ovary (CHO) cells, and Fab fragments were generated from the IgG1 antibodies by papain digestion and purified IgGs produced in yeast were aglycosylated. CHO produced IgGs had standard CH2 glycosylation. […] Monovalent binding affinity to human or cynomolgus CD3εδ-Fc at pH 7.4 and pH 6.0 were measured via surface plasmon resonance (SPR) using the BIACORE® 8K (Cytiva, previously GE Healthcare Life Sciences) system and analyzed using BIACORE® Evaluation Software.
(§6) BIACORE® KD measurements (surface plasmon resonance; SPR). BIACORE® affinity measurements were performed generally as previously described. Briefly, human CD3εδ-Fc heterodimer produced as described above was immobilized to a NiNTA sensor chip in a BIACORE® 8K (Cytiva, previously GE Healthcare Life Sciences) to a response level of ˜500 RUs. […] The sensor chip was doubly regenerated between cycles using 0.35 M EDTA and 0.1 M NaOH. The resulting data were double reference subtracted and fit to a 1:1 binding model using BIACORE® Evaluation Software.

[10] = target: T3, human CD3εδ-Fc heterodimer (Hu CD3ε Fc …); test: SPR (Biacore 8K), yeast-produced Fab, monovalent, pH 7.4
Procedure: as §5, §6

T2 sequence (P07766 23-207): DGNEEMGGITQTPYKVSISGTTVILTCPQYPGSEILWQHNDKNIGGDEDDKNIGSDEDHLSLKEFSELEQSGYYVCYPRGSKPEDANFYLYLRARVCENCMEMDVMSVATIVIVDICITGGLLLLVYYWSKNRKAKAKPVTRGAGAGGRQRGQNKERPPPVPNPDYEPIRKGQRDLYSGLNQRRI
T1 sequence (Q95LI5 22-198): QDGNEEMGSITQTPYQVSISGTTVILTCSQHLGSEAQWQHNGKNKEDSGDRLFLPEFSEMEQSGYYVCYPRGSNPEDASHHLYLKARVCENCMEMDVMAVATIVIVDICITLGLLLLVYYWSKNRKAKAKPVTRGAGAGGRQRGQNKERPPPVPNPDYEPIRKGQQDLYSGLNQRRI
T4 sequence (chain, as listed by the source mutant, form in doubt, chain 1 of 2): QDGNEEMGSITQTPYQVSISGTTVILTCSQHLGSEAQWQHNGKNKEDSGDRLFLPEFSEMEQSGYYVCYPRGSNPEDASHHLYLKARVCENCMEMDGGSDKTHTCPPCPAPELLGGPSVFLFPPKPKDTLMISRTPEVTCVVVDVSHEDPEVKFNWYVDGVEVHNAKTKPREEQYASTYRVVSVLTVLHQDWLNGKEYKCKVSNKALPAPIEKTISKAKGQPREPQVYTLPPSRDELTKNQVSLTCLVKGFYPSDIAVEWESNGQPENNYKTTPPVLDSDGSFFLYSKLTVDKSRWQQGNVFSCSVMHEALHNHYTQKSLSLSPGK
T4 sequence (Q95LI8 22-100, stated change not applied, form in doubt, chain 2 of 2): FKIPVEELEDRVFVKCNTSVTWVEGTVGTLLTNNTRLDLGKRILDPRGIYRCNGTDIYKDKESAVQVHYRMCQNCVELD
T3 sequence (chain, as listed by the source mutant, form in doubt, chain 1 of 2): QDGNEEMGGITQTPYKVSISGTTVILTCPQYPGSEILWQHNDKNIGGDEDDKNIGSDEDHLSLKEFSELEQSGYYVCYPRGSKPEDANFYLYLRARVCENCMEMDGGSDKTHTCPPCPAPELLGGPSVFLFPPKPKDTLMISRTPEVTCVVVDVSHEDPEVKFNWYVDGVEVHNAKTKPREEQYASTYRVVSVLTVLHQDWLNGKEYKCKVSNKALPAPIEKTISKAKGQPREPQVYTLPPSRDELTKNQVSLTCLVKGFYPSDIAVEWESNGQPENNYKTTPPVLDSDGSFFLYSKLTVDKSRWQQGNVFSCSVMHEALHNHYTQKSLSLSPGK
T3 sequence (P04234 22-100, stated change not applied, form in doubt, chain 2 of 2): as the sequence (Q95LI8 22-100, stated change not applied, form in doubt, chain 2 of 2) above, with V5I, K15N, V20I, T32S, N33D, N34I, A64T, N74S counted along it

Binder	NCB [1]	NCB [2]	NCB [3]	NCB [4]	Kd [5] [nM]	Kd [6] [nM]	Kd [7] [nM]	Kd [8] [nM]	Kd [9] [nM]	Kd [10] [nM]
ADI-79842 (Antibody No. 7), human IgG1 (antibody, V domains shown, Tested as yeast-produced aglycosylated human IgG1) VH: QVQLVQSGAEVKKPGASVKVSCKASGFNIKDYYMHWVRQAPGQRLEWMGWIDLENANTIYDAKFQGRVTITRDTSASTAYMELSSLRSEDTAVYYCARDHYGRYFYDVWGQGTLVTVSS VL: DIVMTQSPDSLAVSLGERATINCKSSQSLLNARTGKNYLAWYQQKPGQPPKLLIYWASTRESGVPDRFSGSGSGTDFTLTISSLQAEDVAVYYCKQSYSRRTFGGGTKVEIK	575	172	208	139	6.52	6.88	16.1	17.9	–	–
ADI-79843 (Antibody No. 8), human IgG1 (antibody, V domains shown, Tested as yeast-produced aglycosylated human IgG1) VH: QVQLVQSGAEVKKPGASVKVSCKASGFNIKDYYMHWVRQAPGQRLEWMGWIDLENANTIYDAKFQGRVTITRDTSASTAYMELSSLRSEDTAVYYCARDAYHRYFYDVWGQGTLVTVSS VL: DIVMTQSPDSLAVSLGERATINCKSSQSLLNARTGKNYLAWYQQKPGQPPKLLIYWASTRESGVPDRFSGSGSGTDFTLTISSLQAEDVAVYYCKQSYSRRTFGGGTKVEIK	603	174	207	149	1.6	1.76	6.64	5.66	–	–
ADI-79844 (Antibody No. 10), human IgG1 (antibody, V domains shown, Tested as yeast-produced aglycosylated human IgG1) VH: QVQLVQSGAEVKKPGASVKVSCKASGFNIKDYYMHWVRQAPGQRLEWMGWIDLENANTIYDAKFQGRVTITRDTSASTAYMELSSLRSEDTAVYYCARDAYGRYFYDVWGQGTLVTVSS VL: DIVMTQSPDSLAVSLGERATINCKSSQSLLNARTGKNYLAWYQQKPGQPPKLLIYWASTRESGVPDRFSGSGSGTDFTLTISSLQAEDVAVYYCKQSHSRRTFGGGTKVEIK	603	160	196	147	3.6	2.94	6.51	5.42	–	–
ADI-79845 (Antibody No. 11), human IgG1 (antibody, V domains shown, Tested as yeast-produced aglycosylated human IgG1) VH: QVQLVQSGAEVKKPGASVKVSCKASGFNIKDYYMHWVRQAPGQRLEWMGWIDLENANTIYDAKFQGRVTITRDTSASTAYMELSSLRSEDTAVYYCARDAYGRYFYDVWGQGTLVTVSS VL: DIVMTQSPDSLAVSLGERATINCKSSQSLLNARTGKNYLAWYQQKPGQPPKLLIYWASTRESGVPDRFSGSGSGTDFTLTISSLQAEDVAVYYCKQSYSHRTFGGGTKVEIK	581	167	200	149	1.04	–	9.87	8.06	–	–

Other lines, results leading:

NCB [1]	NCB [2]	NCB [3]	NCB [4]	Kd [5] [nM]	Kd [6] [nM]	Kd [7] [nM]	Kd [8] [nM]	Kd [9] [nM]	Kd [10] [nM]	Binder
–	–	–	–	–	–	–	–	6.16	32.6	Fab of ADI-79842 (Antibody No. 7) (Fab, V domains shown, Fab made by papain digestion of the yeast-produced human IgG1; also called Antibody No. 7 Fab; ADI-79842 Fab) VH: QVQLVQSGAEVKKPGASVKVSCKASGFNIKDYYMHWVRQAPGQRLEWMGWIDLENANTIYDAKFQGRVTITRDTSASTAYMELSSLRSEDTAVYYCARDHYGRYFYDVWGQGTLVTVSS VL: DIVMTQSPDSLAVSLGERATINCKSSQSLLNARTGKNYLAWYQQKPGQPPKLLIYWASTRESGVPDRFSGSGSGTDFTLTISSLQAEDVAVYYCKQSYSRRTFGGGTKVEIK
–	–	–	–	–	–	–	–	2.34	3.45	Fab of ADI-79844 (Antibody No. 10) (Fab, V domains shown, Fab made by papain digestion of the yeast-produced human IgG1; also called Antibody No. 10 Fab; ADI-79844 Fab) VH: QVQLVQSGAEVKKPGASVKVSCKASGFNIKDYYMHWVRQAPGQRLEWMGWIDLENANTIYDAKFQGRVTITRDTSASTAYMELSSLRSEDTAVYYCARDAYGRYFYDVWGQGTLVTVSS VL: DIVMTQSPDSLAVSLGERATINCKSSQSLLNARTGKNYLAWYQQKPGQPPKLLIYWASTRESGVPDRFSGSGSGTDFTLTISSLQAEDVAVYYCKQSHSRRTFGGGTKVEIK
235	2	65	4	8.09	11.8	–	–	–	–	ADI-79846 (Antibody No. 12), human IgG1 (antibody, V domains shown, Tested as yeast-produced aglycosylated human IgG1) VH: QVQLVQSGAEVKKPGASVKVSCKASGFNIKDYYMHWVRQAPGQRLEWMGWIDLENANTIYDAKFQGRVTITRDTSASTAYMGLSSLRSEDTAVYYCARDHYGRYFYDVWGQGTLVTVSS VL: DIVMTQSPDSLAVSLGERATINCKSSQSLLNARTGHNYLAWYQQKPGQPPKLLIYWASTRESGVPDRFSGSGSGTDFTLTISSLQAEDVAVYYCKQSHSHRTFGGGTKVEIK
550	173	200	136	6.47	6.28	11.6	14.5	–	–	ADI-79848 (Antibody No. 9), human IgG1 (antibody, V domains shown, Tested as yeast-produced aglycosylated human IgG1) VH: QVQLVQSGAEVKKPGASVKVSCKASGFNIKDYYMHWVRQAPGQRLEWMGWIDLENANTIYDAKFQGRVTITRDTSASTAYMELSSLRSEDTAVYYCARDAYGRYFYDVWGQGTLVTVSS VL: DIVMTQSPDSLAVSLGERATINCKSSQSLLNARTGHNYLAWYQQKPGQPPKLLIYWASTRESGVPDRFSGSGSGTDFTLTISSLQAEDVAVYYCKQSYSRRTFGGGTKVEIK
2	0	0	0	–	–	–	–	–	–	ADI-79847 (Antibody No. 13), human IgG1 (antibody, V domains shown, Tested as yeast-produced aglycosylated human IgG1) VH: QVQLVQSGAEVKKPGASVKVSCKASGFNIKDYYMHWVRQAPGQRLEWMGWIDLENANTIYDAKFQGRVTITRDTSASTAYMELSSLRSEDTAVYYCARDHYHRYFYDVWGQGTLVTVSS VL: DIVMTQSPDSLAVSLGERATINCKSSQSLLNARTGHNYLAWYQQKPGQPPKLLIYWASTRESGVPDRFSGSGSGTDFTLTISSLQAEDVAVYYCKQSHSRRTFGGGTKVEIK
–	–	–	–	–	–	–	–	0.796	5.9	Fab of ADI-79843 (Antibody No. 8) (Fab, V domains shown, Fab made by papain digestion of the yeast-produced human IgG1; also called Antibody No. 8 Fab; ADI-79843 Fab) VH: QVQLVQSGAEVKKPGASVKVSCKASGFNIKDYYMHWVRQAPGQRLEWMGWIDLENANTIYDAKFQGRVTITRDTSASTAYMELSSLRSEDTAVYYCARDAYHRYFYDVWGQGTLVTVSS VL: DIVMTQSPDSLAVSLGERATINCKSSQSLLNARTGKNYLAWYQQKPGQPPKLLIYWASTRESGVPDRFSGSGSGTDFTLTISSLQAEDVAVYYCKQSYSRRTFGGGTKVEIK
